Data reported in the supplement of paper PMC10065799, “High-throughput profiling of sequence recognition by tyrosine kinases and SH2 domains using bacterial peptide display” (eLife, 2023).

Experiments:
AncSZ = test: phosphorylation enrichment, bacterial display (enrichment ratio); higher = better substrate or ligand; peptides without Tyr show the background
EPHB1 = EPHB1 (UniProt P54762); test: as above
EPHB2 = EPHB2 (UniProt P29323); test: as above
FGFR1 = FGFR1 (UniProt P11362); test: as above
Sequence of FGFR1 (P11362 whole entry, looked up): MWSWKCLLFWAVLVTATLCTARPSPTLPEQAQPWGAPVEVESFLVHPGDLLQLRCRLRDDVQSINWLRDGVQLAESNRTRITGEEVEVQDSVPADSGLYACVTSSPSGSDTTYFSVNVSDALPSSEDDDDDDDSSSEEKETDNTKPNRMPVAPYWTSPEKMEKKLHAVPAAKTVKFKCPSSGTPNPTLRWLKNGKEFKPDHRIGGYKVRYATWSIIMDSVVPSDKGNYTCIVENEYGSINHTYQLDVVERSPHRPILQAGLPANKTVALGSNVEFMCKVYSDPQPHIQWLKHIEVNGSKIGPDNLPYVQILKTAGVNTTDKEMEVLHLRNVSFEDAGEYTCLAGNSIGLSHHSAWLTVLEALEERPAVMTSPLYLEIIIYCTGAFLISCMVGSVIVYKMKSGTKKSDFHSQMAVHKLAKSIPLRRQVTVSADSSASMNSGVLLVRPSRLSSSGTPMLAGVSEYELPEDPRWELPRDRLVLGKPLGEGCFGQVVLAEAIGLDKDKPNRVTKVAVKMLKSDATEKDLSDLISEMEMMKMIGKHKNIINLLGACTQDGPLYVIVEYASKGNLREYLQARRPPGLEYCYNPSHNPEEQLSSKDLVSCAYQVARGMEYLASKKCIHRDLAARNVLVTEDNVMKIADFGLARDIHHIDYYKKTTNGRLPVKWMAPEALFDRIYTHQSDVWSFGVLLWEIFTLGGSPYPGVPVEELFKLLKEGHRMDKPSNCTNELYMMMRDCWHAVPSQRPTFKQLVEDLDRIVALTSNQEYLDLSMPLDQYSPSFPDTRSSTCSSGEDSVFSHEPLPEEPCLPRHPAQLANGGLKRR

FGFR3 = FGFR3 (UniProt P22607); test: as above
Sequence of FGFR3 (P22607 whole entry, looked up): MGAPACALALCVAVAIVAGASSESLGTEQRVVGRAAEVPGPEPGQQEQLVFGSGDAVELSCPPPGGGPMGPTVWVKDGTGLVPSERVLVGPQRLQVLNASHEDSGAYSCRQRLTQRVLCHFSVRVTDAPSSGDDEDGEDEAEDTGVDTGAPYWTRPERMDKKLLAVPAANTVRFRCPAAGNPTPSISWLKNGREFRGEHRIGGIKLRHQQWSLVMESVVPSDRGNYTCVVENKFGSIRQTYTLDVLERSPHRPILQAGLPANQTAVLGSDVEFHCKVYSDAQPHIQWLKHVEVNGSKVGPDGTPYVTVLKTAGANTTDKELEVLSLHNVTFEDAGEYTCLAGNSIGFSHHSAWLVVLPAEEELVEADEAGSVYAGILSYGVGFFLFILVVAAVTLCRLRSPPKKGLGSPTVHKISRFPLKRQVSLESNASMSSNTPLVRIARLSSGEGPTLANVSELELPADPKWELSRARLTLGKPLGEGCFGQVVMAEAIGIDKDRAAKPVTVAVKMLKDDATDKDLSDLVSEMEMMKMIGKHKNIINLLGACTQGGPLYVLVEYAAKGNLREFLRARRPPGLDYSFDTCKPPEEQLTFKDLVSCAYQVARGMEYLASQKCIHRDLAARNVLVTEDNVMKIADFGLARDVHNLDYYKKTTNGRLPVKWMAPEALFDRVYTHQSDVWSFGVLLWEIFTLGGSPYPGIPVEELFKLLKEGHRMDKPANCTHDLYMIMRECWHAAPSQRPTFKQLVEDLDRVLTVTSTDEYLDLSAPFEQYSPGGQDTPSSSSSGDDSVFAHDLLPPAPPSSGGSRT

Fer (mouse) = test: as above
Fes = Fes (UniProt P07332); test: as above
Fyn = Fyn (UniProt P06241); test: as above
Sequence of Fyn (P06241 whole entry, looked up): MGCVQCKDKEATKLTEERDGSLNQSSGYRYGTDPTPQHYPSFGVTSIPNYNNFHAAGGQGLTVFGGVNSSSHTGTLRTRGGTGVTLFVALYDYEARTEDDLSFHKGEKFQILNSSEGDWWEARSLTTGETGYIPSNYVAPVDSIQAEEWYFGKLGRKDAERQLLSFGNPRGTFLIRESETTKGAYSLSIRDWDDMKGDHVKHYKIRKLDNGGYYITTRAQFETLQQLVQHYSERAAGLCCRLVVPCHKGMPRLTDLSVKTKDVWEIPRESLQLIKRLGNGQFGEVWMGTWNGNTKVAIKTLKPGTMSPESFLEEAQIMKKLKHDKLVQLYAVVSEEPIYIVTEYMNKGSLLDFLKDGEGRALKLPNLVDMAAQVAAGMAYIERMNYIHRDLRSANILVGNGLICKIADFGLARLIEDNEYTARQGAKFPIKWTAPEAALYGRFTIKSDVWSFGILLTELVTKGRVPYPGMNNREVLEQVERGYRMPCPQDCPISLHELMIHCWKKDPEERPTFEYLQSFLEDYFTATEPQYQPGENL

Hck = Hck (UniProt P08631); test: as above
Sequence of Hck (P08631 whole entry, looked up): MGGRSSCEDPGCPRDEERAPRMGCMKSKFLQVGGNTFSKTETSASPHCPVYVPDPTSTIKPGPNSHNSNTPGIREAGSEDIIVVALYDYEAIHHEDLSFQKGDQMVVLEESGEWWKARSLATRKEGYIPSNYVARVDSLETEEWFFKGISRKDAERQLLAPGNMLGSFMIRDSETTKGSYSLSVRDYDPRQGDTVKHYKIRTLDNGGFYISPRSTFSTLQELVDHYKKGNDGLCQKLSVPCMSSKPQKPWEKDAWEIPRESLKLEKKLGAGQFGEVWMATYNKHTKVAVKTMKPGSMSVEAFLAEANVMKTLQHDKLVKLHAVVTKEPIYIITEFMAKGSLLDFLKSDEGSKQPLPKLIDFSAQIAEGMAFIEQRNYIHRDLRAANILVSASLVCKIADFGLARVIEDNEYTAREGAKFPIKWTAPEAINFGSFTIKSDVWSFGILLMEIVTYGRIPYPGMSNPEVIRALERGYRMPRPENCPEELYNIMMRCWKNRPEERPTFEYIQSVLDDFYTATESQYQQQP

Jak2 = Jak2 (UniProt O60674); test: as above
Sequence of Jak2 (O60674 whole entry, looked up): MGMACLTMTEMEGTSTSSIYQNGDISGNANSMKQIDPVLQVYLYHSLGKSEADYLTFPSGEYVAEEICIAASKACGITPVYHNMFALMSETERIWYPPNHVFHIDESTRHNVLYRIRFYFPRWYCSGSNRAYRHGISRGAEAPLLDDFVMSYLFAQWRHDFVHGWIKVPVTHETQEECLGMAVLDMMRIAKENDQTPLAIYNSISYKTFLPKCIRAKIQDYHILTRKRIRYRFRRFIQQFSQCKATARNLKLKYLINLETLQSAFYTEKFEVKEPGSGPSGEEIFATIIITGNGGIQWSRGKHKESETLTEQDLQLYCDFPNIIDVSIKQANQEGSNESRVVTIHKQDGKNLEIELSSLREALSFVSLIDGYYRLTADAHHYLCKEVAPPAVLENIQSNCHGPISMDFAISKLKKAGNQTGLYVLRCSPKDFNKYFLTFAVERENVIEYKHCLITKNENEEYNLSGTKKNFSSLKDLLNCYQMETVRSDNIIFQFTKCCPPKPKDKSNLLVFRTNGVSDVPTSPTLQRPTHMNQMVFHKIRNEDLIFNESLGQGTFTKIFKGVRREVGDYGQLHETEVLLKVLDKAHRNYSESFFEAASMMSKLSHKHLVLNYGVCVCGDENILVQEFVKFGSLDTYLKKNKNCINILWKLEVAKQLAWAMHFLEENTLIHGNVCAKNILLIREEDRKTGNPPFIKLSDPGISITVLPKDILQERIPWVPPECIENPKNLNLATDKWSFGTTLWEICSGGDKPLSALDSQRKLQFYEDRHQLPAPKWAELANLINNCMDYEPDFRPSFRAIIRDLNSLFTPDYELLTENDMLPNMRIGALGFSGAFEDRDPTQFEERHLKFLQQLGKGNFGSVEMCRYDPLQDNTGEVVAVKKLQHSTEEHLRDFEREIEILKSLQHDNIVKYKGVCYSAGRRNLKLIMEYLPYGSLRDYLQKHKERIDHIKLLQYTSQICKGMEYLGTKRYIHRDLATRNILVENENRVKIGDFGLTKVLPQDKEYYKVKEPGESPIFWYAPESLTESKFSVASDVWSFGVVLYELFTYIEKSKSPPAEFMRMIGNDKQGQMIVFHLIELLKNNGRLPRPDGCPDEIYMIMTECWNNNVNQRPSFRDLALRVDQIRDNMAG

MERTK = MERTK (UniProt Q12866); test: as above
Sequence of MERTK (Q12866 whole entry, looked up): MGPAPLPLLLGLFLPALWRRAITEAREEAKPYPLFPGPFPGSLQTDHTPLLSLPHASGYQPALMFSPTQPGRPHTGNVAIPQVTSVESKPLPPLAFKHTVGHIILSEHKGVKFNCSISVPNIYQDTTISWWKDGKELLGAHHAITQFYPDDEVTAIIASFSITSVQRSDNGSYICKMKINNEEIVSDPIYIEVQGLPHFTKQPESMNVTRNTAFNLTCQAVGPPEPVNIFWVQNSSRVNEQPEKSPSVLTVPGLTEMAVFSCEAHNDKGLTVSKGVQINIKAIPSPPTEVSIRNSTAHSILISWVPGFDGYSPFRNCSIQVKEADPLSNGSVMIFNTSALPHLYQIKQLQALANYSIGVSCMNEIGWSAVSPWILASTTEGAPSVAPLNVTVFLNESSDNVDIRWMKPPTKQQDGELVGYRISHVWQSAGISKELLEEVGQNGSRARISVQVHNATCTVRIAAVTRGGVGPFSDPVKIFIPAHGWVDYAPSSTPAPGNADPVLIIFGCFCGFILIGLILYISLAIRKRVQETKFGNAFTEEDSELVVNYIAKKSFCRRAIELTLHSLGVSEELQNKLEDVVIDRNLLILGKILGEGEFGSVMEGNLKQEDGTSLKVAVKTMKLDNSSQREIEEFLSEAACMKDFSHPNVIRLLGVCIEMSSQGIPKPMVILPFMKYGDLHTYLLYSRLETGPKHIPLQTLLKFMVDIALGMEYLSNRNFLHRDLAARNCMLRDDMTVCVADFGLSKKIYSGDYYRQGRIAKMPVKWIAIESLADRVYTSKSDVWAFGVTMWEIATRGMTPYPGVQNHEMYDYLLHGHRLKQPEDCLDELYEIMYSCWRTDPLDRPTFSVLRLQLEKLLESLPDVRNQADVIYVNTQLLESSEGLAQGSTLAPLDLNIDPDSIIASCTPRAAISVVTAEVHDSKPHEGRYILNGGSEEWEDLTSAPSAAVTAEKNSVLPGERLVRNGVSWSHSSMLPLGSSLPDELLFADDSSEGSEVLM

c-Abl (mouse) = test: as above
c-Src = test: as above
Grb2 SH2 = Grb2 SH2 (UniProt P62993); test: SH2 binding enrichment of the phosphorylated peptide, bacterial display (enrichment ratio); higher = better substrate or ligand; peptides without Tyr show the background
Sequence of Grb2 SH2 (P62993 whole entry, looked up): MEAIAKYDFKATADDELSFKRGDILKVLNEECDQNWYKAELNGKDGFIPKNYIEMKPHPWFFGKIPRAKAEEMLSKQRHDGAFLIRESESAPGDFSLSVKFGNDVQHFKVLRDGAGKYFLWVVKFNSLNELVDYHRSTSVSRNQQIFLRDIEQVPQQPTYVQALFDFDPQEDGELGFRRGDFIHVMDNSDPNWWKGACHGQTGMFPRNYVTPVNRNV

SHP2-C SH2 = test: as above
c-Src SH2 = test: as above
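For SH2 binding enrichment of the phosphorylated peptide, bacterial display in this document: peptide library displayed on the E. coli surface as eCPX fusions, selected cells deep-sequenced, score is each peptide's frequency after selection divided by its frequency in the input.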
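For phosphorylation enrichment, bacterial display in this document: 11-residue human phosphosite peptides and single-mutation variants displayed on the E. coli surface, counted by deep sequencing, each peptide's frequency after selection divided by its frequency in the unselected input library; frequency after pTyr selection over input frequency; kinase dosed for 20-30% of maximal phosphorylation in three min.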

Row | Sequence | phosphorylation enrichment (AncSZ) | phosphorylation enrichment (EPHB1) | phosphorylation enrichment (EPHB2) | phosphorylation enrichment (FGFR1) | phosphorylation enrichment (FGFR3) | phosphorylation enrichment (Fer (mouse)) | phosphorylation enrichment (Fes) | phosphorylation enrichment (Fyn) | phosphorylation enrichment (Hck) | phosphorylation enrichment (Jak2) | phosphorylation enrichment (MERTK) | phosphorylation enrichment (c-Abl (mouse)) | phosphorylation enrichment (c-Src) | SH2 binding enrichment (Grb2 SH2) | SH2 binding enrichment (SHP2-C SH2) | SH2 binding enrichment (c-Src SH2)
1 | FETNVYVDKNL [PTCHD3_Y688_K685T] | 0.996 | 0.546 | 0.539 | 0.436 | 0.623 | 0.482 | 0.938 | 0.54 | 0.578 | 0.53 | 0.411 | 1.01 | 0.36 | 0.968 | 0.656 | 0.693
2 | FFRDGHMPRQF [GSS_Y270_Y270H_YF] | 0.472 | 0.367 | 0.363 | 0.392 | 0.487 | 0.355 | 0.612 | 0.374 | 0.357 | 0.491 | 0.324 | 0.505 | 0.365 | 0.741 | 0.611 | 0.494
3 | FFRKVYHLASV [RBL1_Y796_YF] | 0.697 | 0.439 | 0.415 | 0.46 | 0.545 | 0.374 | 0.781 | 0.491 | 0.337 | 0.713 | 0.36 | 0.581 | 0.503 | 0.979 | 0.721 | 0.667
4 | FGAHNHHPLPV [OAT_Y55_Y55H_YF] | 0.58 | 0.393 | 0.54 | 0.386 | 0.694 | 0.505 | 0.636 | 0.369 | 0.457 | 0.583 | 0.496 | 0.579 | 0.477 | 1.03 | 1.14 | 0.818
5 | FGGLRYGFGGL [KRTAP20-2_Y13_V17G_YF] | 0.739 | 0.445 | 0.448 | 0.672 | 0.536 | 0.431 | 1.08 | 0.389 | 0.465 | 0.664 | 0.37 | 0.553 | 0.379 | 0.903 | 0.762 | 0.601
6 | FGMSTYITRED [FNDC3B_Y180_YF] | 0.961 | 0.776 | 0.45 | 0.581 | 0.676 | 0.533 | 1.11 | 0.676 | 0.743 | 0.95 | 0.437 | 0.693 | 0.692 | 0.802 | 0.745 | 0.563
7 | FGSRLYKFAFK [FANCD2_Y458_L456R_YF] | 0.571 | 0.354 | 0.557 | 0.399 | 0.484 | 0.311 | 0.651 | 0.433 | 0.439 | 0.582 | 0.406 | 0.456 | 0.515 | 0.877 | 0.583 | 0.568
8 | FHLGKYLQEVL [KLB_Y910_Y906H_YF] | 1.58 | 0.415 | 0.514 | 0.415 | 0.788 | 0.48 | 1.52 | 0.346 | 0.591 | 1.36 | 0.428 | 1.01 | 0.491 | 0.706 | 0.935 | 0.49
9 | FHLLPYTIRAM [PARS2_Y93_V95I_YF] | 0.825 | 0.504 | 0.588 | 0.547 | 0.533 | 0.454 | 0.972 | 0.5 | 0.541 | 0.708 | 0.373 | 0.621 | 1.02 | 1.66 | 1.62 | 1.55
10 | FKDFFYCWNTF [AICDA_Y146_YF] | 1.87 | 0.862 | 0.804 | 0.749 | 1.09 | 1.41 | 1.93 | 0.618 | 0.624 | 1.73 | 2.55 | 1.19 | 1.25 | 0.696 | 0.631 | 0.423
11 | FKEQGYHRLPP [RIN1_Y681_YF] | 0.441 | 0.561 | 0.298 | 0.58 | 0.528 | 0.363 | 0.679 | 0.457 | 0.456 | 0.877 | 0.377 | 0.345 | 0.37 | 0.94 | 0.77 | 0.742
12 | FKEVVYQAMEE [TACC3_Y684_E680K] | 1.55 | 1.06 | 0.814 | 0.771 | 0.884 | 0.829 | 1.05 | 2.37 | 1.66 | 1.04 | 1.62 | 1.11 | 2.88 | 0.774 | 0.994 | 0.918
13 | FLNSSYINIST [IL23R_Y178_T175N_YF] | 0.652 | 0.338 | 0.368 | 0.464 | 0.676 | 0.367 | 0.746 | 0.438 | 0.471 | 0.663 | 0.415 | 0.383 | 0.317 | 25 | 1.69 | 4.35
14 | FLTLHYDAKPQ [ANG_Y38_Q36L] | 0.912 | 0.505 | 0.426 | 0.532 | 0.575 | 0.328 | 0.983 | 0.449 | 0.462 | 0.669 | 0.301 | 0.501 | 0.312 | 0.783 | 0.844 | 0.653
15 | FMCKVYSDPQP [FGFR1_Y280] | 1.41 | 0.752 | 0.701 | 0.543 | 0.863 | 0.591 | 1.64 | 0.516 | 0.578 | 1.3 | 0.425 | 0.99 | 0.664 | 0.733 | 0.511 | 0.439
16 | FMKEPYIQSRF [HIPK4_Y175_V171M_YF] | 0.54 | 0.257 | 0.412 | 0.372 | 0.449 | 0.275 | 0.643 | 0.332 | 0.393 | 0.807 | 0.452 | 0.548 | 0.474 | 0.964 | 0.687 | 0.57
17 | FMYKVYSDPQP [FGFR1_Y280_C277Y] | 1.03 | 0.778 | 0.799 | 0.461 | 0.642 | 0.532 | 1.16 | 0.526 | 0.569 | 0.819 | 0.5 | 0.521 | 0.495 | 0.8 | 0.854 | 0.768

Row | Sequence | phosphorylation enrichment (AncSZ) | phosphorylation enrichment (EPHB1) | phosphorylation enrichment (EPHB2) | phosphorylation enrichment (FGFR1) | phosphorylation enrichment (FGFR3) | phosphorylation enrichment (Fer (mouse)) | phosphorylation enrichment (Fes) | phosphorylation enrichment (Fyn) | phosphorylation enrichment (Hck) | phosphorylation enrichment (Jak2) | phosphorylation enrichment (MERTK) | phosphorylation enrichment (c-Abl (mouse)) | phosphorylation enrichment (c-Src) | SH2 binding enrichment (Grb2 SH2) | SH2 binding enrichment (SHP2-C SH2) | SH2 binding enrichment (c-Src SH2)
18 | FNSLPYQVPTS [CALCOCO2_Y358] | 0.942 | 0.464 | 0.504 | 0.431 | 0.578 | 1.36 | 0.63 | 0.467 | 0.56 | 0.611 | 1.34 | 2.56 | 0.561 | 1.12 | 0.871 | 0.843
19 | FPPDGYSRHCE [CTNND1_Y213_Y217C_YF] | 0.784 | 0.565 | 0.542 | 0.477 | 0.661 | 0.485 | 0.904 | 0.431 | 0.473 | 0.741 | 0.383 | 0.584 | 0.376 | 0.985 | 0.706 | 0.617
20 | FPPDGYSRHFE [CTNND1_Y213_YF] | 0.606 | 0.363 | 0.373 | 0.398 | 0.603 | 0.349 | 0.676 | 0.435 | 0.408 | 0.62 | 0.372 | 0.493 | 0.472 | 0.818 | 0.738 | 0.424
21 | FPPISYLNAIS [MVD_Y276] | 0.813 | 0.383 | 0.472 | 0.473 | 0.522 | 0.408 | 0.675 | 0.488 | 0.465 | 0.51 | 0.49 | 0.664 | 0.466 | 0.668 | 0.771 | 0.491
22 | FQEKGYNKEPR [CHRND_Y38_L42P] | 0.895 | 0.738 | 0.627 | 0.587 | 0.569 | 0.571 | 0.868 | 0.649 | 0.655 | 0.691 | 0.644 | 0.912 | 0.57 | 1 | 0.981 | 0.67
23 | FQGRRYDCDCD [CRYGS_Y21] | 0.875 | 0.373 | 0.383 | 0.478 | 0.497 | 0.368 | 0.936 | 0.428 | 0.5 | 0.751 | 0.529 | 0.647 | 0.471 | 0.926 | 0.687 | 0.571
24 | FQNSLYAPDYS [FAM92A_Y226_R222Q] | 1.1 | 2.48 | 2.45 | 0.781 | 0.926 | 1.6 | 1.07 | 1.07 | 1.46 | 0.945 | 5.57 | 0.618 | 1.42 | 1.2 | 1.17 | 0.628
25 | FRDALYKFIVD [PHEX_Y250_M253I_YF] | 1.02 | 0.644 | 0.489 | 0.44 | 0.748 | 0.479 | 1.32 | 0.508 | 0.56 | 0.919 | 0.902 | 0.809 | 0.546 | 1.02 | 1.02 | 1.04
26 | FRDALYKFMVD [PHEX_Y250_YF] | 1.15 | 0.768 | 0.602 | 0.626 | 0.962 | 0.676 | 1.37 | 0.525 | 0.559 | 1.23 | 0.763 | 0.834 | 0.582 | 0.897 | 0.956 | 0.77
27 | FRNSLYAPDYS [FAM92A_Y226] | 0.723 | 1.23 | 0.775 | 0.66 | 0.619 | 0.555 | 0.725 | 0.734 | 0.88 | 0.58 | 4.83 | 0.493 | 0.779 | 0.79 | 0.754 | 0.568
28 | FRRITYFNWRH [PDE6B_Y556_H557Y_YF] | 0.817 | 0.626 | 0.625 | 0.553 | 0.476 | 0.423 | 0.8 | 0.607 | 0.832 | 0.852 | 0.615 | 0.573 | 0.673 | 0.821 | 1.99 | 0.363
29 | FRTPGYREVVI [TNS2_Y673_A670T_YF] | 0.703 | 0.418 | 0.446 | 0.45 | 0.6 | 0.473 | 0.814 | 0.411 | 0.43 | 0.615 | 0.546 | 0.597 | 0.504 | 1.35 | 0.901 | 0.607
30 | FSLIHYAGIVD [MYH7_Y582] | 0.997 | 0.503 | 0.648 | 0.405 | 0.714 | 0.387 | 0.963 | 0.408 | 0.458 | 0.765 | 0.339 | 0.609 | 0.343 | 1.45 | 19 | 5.22
31 | FSLIHYASIVD [MYH7_Y582_G584S] | 1.07 | 0.83 | 0.692 | 0.479 | 1.01 | 0.714 | 1.29 | 0.488 | 0.575 | 1.13 | 0.475 | 0.847 | 0.442 | 1.08 | 37.2 | 7.83
32 | FSPCDYQPCLA [TNS1_Y798_Y796C_YF] | 1.84 | 11.6 | 6.05 | 2.38 | 1.58 | 0.539 | 1.11 | 0.581 | 0.659 | 1.05 | 0.49 | 0.996 | 1.42 | 0.883 | 0.843 | 0.837
33 | FSPFDYQPCLA [TNS1_Y798_YF] | 1.39 | 0.775 | 0.715 | 1.01 | 0.978 | 0.643 | 1.44 | 0.589 | 0.66 | 1.21 | 0.538 | 1.04 | 0.57 | 0.756 | 0.657 | 0.496
